Assay results taken from publication doi:10.1101/2020.12.03.409995, “Wild-type sTREM2 blocks Aβ aggregation and neurotoxicity, while the Alzheimer’s R47H mutant does the opposite” (bioRxiv, 2020).

Biological target: T1, HiLyte Fluor 488-labelled Aβ42 oligomers (human, UniProt P05067 672-713, HiLyte Fluor 488 label (position not given))
T1 construct: amyloid beta-peptide 1-42 (Aβ42), human, the cut product of the amyloid precursor protein; Oligomeric species in the 6 hour aggregation mixture, told from monomers by photobleaching; also called Aβ oligomers; oligomeric Aβ; source: synthetic peptide, bought: AnaSpec; aggregated at 0.5 μM in PBS pH 7.4 for 6 hours
Assay: single-molecule TIRF two-colour coincidence detection; HiLyte Fluor 488 Aβ42 aggregated 6 hours at 0.5 μM in PBS pH 7.4, dye-labelled sTREM2 added and imaged on slides; monomers told from oligomers by photobleaching; chance coincidence subtracted
Settings: both partners purified

B1: dye-labelled wild-type sTREM2 (TREM2 ectodomain) for single-molecule TIRF (domain or fragment, UniProt Q9NZC2 19-143, looked up)
chain: HNTTVFQGVAGQSLQVSCPYDSMKHWGRRKAWCRQLGEKGPCQRVVSTHNLWLLSFLRRWNGSTAITDDTLGGTLTITLRNLQPHDAGLYQCQSLHGSEADTLRKVLVEVLADPLDHRDAGDLWF
modifications: fluorescent dye label: TAMRA in the results, AF647 in the methods (position not given)
notes: TREM2 residues 19-143, wild type; The labelled form of m10; also called TAMRA-dye labelled sTREM2; AF647-TREM2; source: Freestyle 293-F cells, transfected (pHLSec), purified from conditioned medium (IMAC, gel filtration), dye-labelled
Question: Does B1 bind?
Answer: binds
